± gives the uncertainty stated by the source.

The nature of this series: amyloid nucleation score (Sup35N fusion, yeast selection) (log enrichment); library NNK2; higher = more nucleation; inactive = no reads after selection. The method, boiled down:
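Plasmid inserts were Illumina-sequenced at input and output from psi-negative yeast expressing Sup35N fused to peptides of 20 random codons. The yeast were induced with 100 μM copper sulfate for 24 hours and grown 7 days at 30°C on medium lacking adenine and uracil, and sequences with under 100 input reads were excluded. Nucleation score is the DiMSum log enrichment of output over input reads, centred on the mode score of non-aggregating sequences.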
For LSHRSQYGADVIRSR, the amyloid nucleation score was -0.316 ± 0.61.

For the substance IELGFFSGTVIVVSYWEFTR, the amyloid nucleation score is -1.02 ± 1.

Consider IRKRCGINGMYRWIWVTWYL, for which the amyloid nucleation score is -1.12 ± 0.33.

GNTHHRDGILESQPFFVTEA showed an amyloid nucleation score of 0.465 ± 0.29.

Turning to DGVSHC, the amyloid nucleation score turned out to be 0.02 ± 0.79.

Take YKFLLFFYVDTSYVMLFSGF: the amyloid nucleation score was -0.887 ± 1.1.

ALPKFSNNYLYEFLWFSRYL: the amyloid nucleation score was -0.538 ± 0.76.

In turn, ASWYRMWMWCEHTSSRLCVK came in with an amyloid nucleation score of 5.268 ± 0.037.

The substance KYTGNFGAVSL registered an amyloid nucleation score of 0.22 ± 0.65.

In the case of FYPSWNLYRVRGQPYLNRVR, the amyloid nucleation score is -0.352 ± 1.1.

As to FDHMWLSGQVQWFLNYTTSL, the amyloid nucleation score entry was “inactive”.

Regarding LPKGNYSLLAERRSYFGAPI, the amyloid nucleation score result is “inactive”.

On to RYFWRVSNIVWASAF, for which the amyloid nucleation score was -0.498 ± 0.44.

As to SMYLTETRLHCHDWSAAAWG, the amyloid nucleation score came to 0.663 ± 0.21.

ILLCCPVLFPINMKGSVCDK: the amyloid nucleation score worked out at 8.463 ± 0.044.

For AYYYVLRFRCLFTFYPQLTA, the amyloid nucleation score was -0.428 ± 0.39.

With VYSHILDYFACISYAITLVD, the amyloid nucleation score stood at 2.91 ± 0.13.

YVATVWPLQSKRLSHRLMNG yielded an amyloid nucleation score of 0.695 ± 0.43.

As for VVSWCVEVNPRERAKVDMCR, the amyloid nucleation score amounted to 4.25 ± 0.047.

With FGWVINVNVRPTRFVTEGPV, the amyloid nucleation score turned out to be 6.54 ± 0.073.

Take SREVRNANPSSGDDGSIRVE: the amyloid nucleation score was -0.02 ± 1.1.

In the case of CSWLLTH, the amyloid nucleation score was -0.461 ± 0.48.

As for KGFDEVGMMAIGFDSWVGTR, the amyloid nucleation score was 0.242 ± 0.26.

The substance ILFCLF showed an amyloid nucleation score of 8.143 ± 0.033.

As for WSTSFYLLIFTPRVCCMDFF, the amyloid nucleation score is 5.619 ± 0.034.

Take FVHIIESELYSEQTRESHLL: the amyloid nucleation score is -0.586 ± 0.29.

Consider GESTWATVLACPSERRSCSR, for which the amyloid nucleation score came to 0.559 ± 0.33.

As to VLCGNSFMNCCSAFRCGSAV, the amyloid nucleation score was determined as 8.923 ± 0.059.

On to CRFLRA, for which the amyloid nucleation score is -0.051 ± 0.79.

Regarding YGALYTVRMEN, the amyloid nucleation score is -0.482 ± 0.49.

LFRWM displayed an amyloid nucleation score of 3.92 ± 0.06.

The substance FVLTCRSSLYAVRDRLK registered an amyloid nucleation score of 1.35 ± 0.43.

Consider LNSYPASV, for which the amyloid nucleation score entry was “inactive”.

Turning to RTLGHSLYPIDIYMGSDHLG, the amyloid nucleation score entry was “inactive”.

For the substance YSLCTTPMRAWVSYVFDVR, the amyloid nucleation score is -1.04 ± 0.64.

As to RMCDL, the amyloid nucleation score was -1.19 ± 0.79.

As for MYLLFGSLTVYRIHYSVSNT, the amyloid nucleation score is -1.14 ± 1.1.

In the case of CNWLYF, the amyloid nucleation score was found to be 0.395 ± 0.8.

With RFEWVPGLSKGN, the amyloid nucleation score entry was “inactive”.

Turning to NRCRNNGQLRGQCICGSVCL, the amyloid nucleation score is -0.284 ± 0.39.

On to LFSKDVSRTLGPACFICEGT, for which the amyloid nucleation score came out at 2.78 ± 0.072.

On to RVYLMLLVQYRTWSYVFVDC, for which the amyloid nucleation score was -0.402 ± 0.26.

For the substance VHCREWEIIRMINLSRKQRV, the amyloid nucleation score was -0.419 ± 0.46.

As for YEISSLRSFRSVLNWYMSGS, the amyloid nucleation score was 4.6 ± 0.052.

As for YSSMGDNSRVRSFFVAVAGG, the amyloid nucleation score entry was “inactive”.

As to VPELVSYFHLP, the amyloid nucleation score turned out to be 0.863 ± 0.43.

FCTLCFSLCQ: the amyloid nucleation score is 1.82 ± 0.23.

Turning to VRGYRVGVWLRTGRVLVYRG, the amyloid nucleation score is -0.282 ± 0.76.

For SIRSRLEFSFFL, the amyloid nucleation score was 3.45 ± 0.047.

As for SSGCS, the amyloid nucleation score was -0.021 ± 0.5.

NDHLGVS had an amyloid nucleation score of 3.69 ± 0.059.

CTIVYF came in with an amyloid nucleation score of 1.13 ± 0.27.

PTVSLKDISGWIKPVRYLNG returned an amyloid nucleation score of 0.26 ± 0.25.

Take VHYVFSCCNKLPSANSRWGL: the amyloid nucleation score turned out to be 6.718 ± 0.066.

SGNGLLMCPMGSRTGRLFHR returned an amyloid nucleation score of 3.54 ± 0.061.

On to THLSWQKMWFLIVHALKICL, for which the amyloid nucleation score entry is “inactive”.

Consider IAICVNARE, for which the amyloid nucleation score turned out to be 0.838 ± 0.35.

As for SSFLDRAIGGEAGRCSVWMK, the amyloid nucleation score is 0.856 ± 0.24.

The record behind these values is the supplement of paper PMC12042874.
